Here are results for four molecules from patent US20140205612A1.

Assay in all cases: cell-based or functional assay
Experiment [1] has as its target 92RW020 Env on pseudovirus (HIV-1 92RW020).
In experiment [2] the target is ADA Env on pseudovirus (HIV-1 ADA).
In experiment [3] the target is HIV-1 JR-CSF Env on pseudovirus (HIV-1 JR-CSF) (UniProt P20871).
Experiment [4] addresses JR-CSF(1309A) Env on pseudovirus (HIV-1 JR-CSF) (UniProt P20871).
In experiment [5] the target is JR-CSF(Y318A) Env on pseudovirus (HIV-1 JR-CSF) (UniProt P20871).
The target in experiment [6] is JR-FL(E168K) Env on pseudovirus (HIV-1 JR-FL).

B1: 1503_H05 (PG16) (TCN-119) (antibody, V domains shown)
VH: QEKLVESGGGVVQPGGSLRLSCLASGFTFHKYGMHWVRQAPGKGLEWVALISDDGMRKYHSDSMWGRVTISRDNSKNTLYLQFSSLKVEDTAMFFCAREAGGPIWHDDVKYYDFNDGYYNYHYMDVWGKGTIVTVSS
VL: QSALTQPASVSGSPGQTITISCNGTRSDVGGFDSVSWYQQSPGKAPKVMVFDVSHRPSGISNRFSGSKSGNTASLTISGLHIEDEGDYFCSSLTDRSHRIFGGGTKVTVLG
Turning to B1, the IC50 (ug/ml), pseudovirus neutralization, TZM-bl assay in experiment [1] is 0.02 µg/mL; in experiment [2], 0.003 µg/mL; in experiment [3] it was 0.001 µg/mL; in experiment [4] it was greater than 1 µg/mL; in experiment [5], greater than 1 µg/mL; in experiment [6], 0.002 µg/mL.

B2: 1489_I13 (PG16) (TCN-120) (antibody, V domains shown)
VH: QEQLLESGGGVVQPGGSLRLSCLASGFTFHKYGMHWVRQAPGKGLEWVALISDDGMRKYHSNSMWGRVTISRDNSKNTLYLQFSSLKVEDTAMFFCAREAGGPIWHDDVKYYDFNDGYYNYHYMDVWGKGTTVTVSS
VL: QSALTQPASVSGSPGQTITISCNGTSSDVGGFDSVSWYQQSPGKAPKVMVFDVSHRPSGISNRFSGSKSGNTASLTISGLHIEDEGDYFCSSLTDRSHRIFGGGTKVTVLG
Consider B2, for which the IC50 (ug/ml), pseudovirus neutralization, TZM-bl assay in experiment [1] was 0.03 µg/mL; in experiment [2] it was 0.008 µg/mL; in experiment [3], 0.002 µg/mL; in experiment [4], greater than 1 µg/mL; in experiment [5] it was greater than 1 µg/mL; in experiment [6], 0.005 µg/mL.

B3: 1469_M23 (PG16) (TCN-118) (antibody, V domains shown)
VH: QEKLVESGGGVVQPGGSLRLSCLASGFTFHKYGMHWVRQAPGKGLEWVALISDDGMRKYHSDSMWGRVTISRDNSKNTLYLQFSSLKVEDTAMFFCAREAGGPIWHDDVKYYDFNDGYYNYHYMDVWGKGTTVTVSS
VL: QSALTQPASVSGSPGQTITISCNGTRSDVGGFDSVSWYQQSPGRAPKVMVFDVSHRPSGISNRFSGSKSGNTASLTISGLHIEDEGDYFCSSLTDRSHRIFGGGTKLTVLG
Turning to B3, the IC50 (ug/ml), pseudovirus neutralization, TZM-bl assay in experiment [1] was 0.05 µg/mL; in experiment [2], 0.005 µg/mL; in experiment [3], 0.002 µg/mL; in experiment [4], greater than 1 µg/mL; in experiment [5], greater than 1 µg/mL; in experiment [6] it was 0.005 µg/mL.

B4: 1456_A12 (PG16) (TCN-117) (antibody, V domains shown)
VH: HEQLVEAGGGVVQPGGSLRLSCLASGFTFHKYGMHWVRQAPGKGLEWVALISDDGMRKYHSDSMWGRVTISRDNSKNTLYLQFSSLRVEDTAMFFCAREAGGPIWHDDVKYYDFNDGYYNYHYMDVWGKGTKVTVSS
VL: QSALTQPASVSGSPGQTITISCNGTSRDVGGFDSVSWYQQSPGKAPKVMVFDVSHRPSGMSNRFSGSKSGNTASLTISGLHIEDEGDYFCSSLTDRSHRIFGGGTKLTVLG
On to B4, for which the IC50 (ug/ml), pseudovirus neutralization, TZM-bl assay in experiment [1] is 0.05 µg/mL; in experiment [2], 0.005 µg/mL; in experiment [3] it was 0.001 µg/mL; in experiment [4] it was greater than 1 µg/mL; in experiment [5] it was greater than 1 µg/mL; in experiment [6], 0.003 µg/mL.
